Test results as given in publication doi:10.1101/2025.06.18.660405 (bioRxiv, 2025).
Read-outs that look alike come from different tables or passages of the source.

Tests used:
Assay in all cases: pull-down
MBP-NOP58 ΔNLS (human) = MBP-NOP58 ΔNLS (human) (UniProt Q9Y2X3)
[1] = biological target: T1, MBP fused to the C-terminal NLS IDR of NAP57 (92aa) (human)
T1 sequence (O60832 whole entry, looked up): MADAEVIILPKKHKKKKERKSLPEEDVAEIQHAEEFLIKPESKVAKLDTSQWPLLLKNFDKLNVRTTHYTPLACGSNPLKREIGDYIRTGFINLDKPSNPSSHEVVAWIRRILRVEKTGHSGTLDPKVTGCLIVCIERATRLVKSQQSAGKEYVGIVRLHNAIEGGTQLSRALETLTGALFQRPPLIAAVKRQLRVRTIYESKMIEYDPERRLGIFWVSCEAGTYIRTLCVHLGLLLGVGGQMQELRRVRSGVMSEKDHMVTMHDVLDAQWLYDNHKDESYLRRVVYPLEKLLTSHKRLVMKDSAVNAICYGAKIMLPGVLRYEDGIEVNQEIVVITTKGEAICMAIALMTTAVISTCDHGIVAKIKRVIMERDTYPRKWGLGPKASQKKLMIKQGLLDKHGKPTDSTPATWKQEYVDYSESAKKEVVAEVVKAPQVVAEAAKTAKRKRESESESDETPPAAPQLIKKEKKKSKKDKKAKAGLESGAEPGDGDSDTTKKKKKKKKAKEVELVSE

[2] = biological target: fibrillarin F>S (six phenylalanines of the N-terminal GF-IDR replaced with serines) (human) (UniProt P22087)
[3] = biological target: fibrillarin F>S (six phenylalanines of the N-terminal GF-IDR replaced with serines) (human) (UniProt P22087); remark: listed apart in the source
MBP-GAR1 (full-length) = biological target: T2, MBP-GAR1 (full-length) (human, UniProt Q9NY12 1-217)
T2 sequence (looked up): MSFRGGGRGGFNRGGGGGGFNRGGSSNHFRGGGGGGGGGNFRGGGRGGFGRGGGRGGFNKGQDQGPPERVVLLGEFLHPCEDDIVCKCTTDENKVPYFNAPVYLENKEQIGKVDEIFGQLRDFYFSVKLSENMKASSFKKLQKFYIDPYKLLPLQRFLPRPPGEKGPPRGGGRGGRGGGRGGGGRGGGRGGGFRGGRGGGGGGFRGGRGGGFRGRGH

[4] = biological target: T3, MBP-fibrillarin (full-length) (human, UniProt P22087 1-321)
T3 sequence (looked up): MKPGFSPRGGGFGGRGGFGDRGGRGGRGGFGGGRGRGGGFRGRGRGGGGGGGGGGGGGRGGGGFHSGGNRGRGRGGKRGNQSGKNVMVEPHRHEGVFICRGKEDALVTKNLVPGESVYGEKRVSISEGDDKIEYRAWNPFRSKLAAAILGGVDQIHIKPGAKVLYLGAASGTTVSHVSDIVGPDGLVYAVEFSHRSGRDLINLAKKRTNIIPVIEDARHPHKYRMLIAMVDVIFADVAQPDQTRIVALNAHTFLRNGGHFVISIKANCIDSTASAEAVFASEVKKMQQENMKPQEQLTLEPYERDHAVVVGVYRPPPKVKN

Chain of MBP-NOP58 ΔNLS (human) (Q9Y2X3 whole entry, stated change not applied, the tested form may be a part): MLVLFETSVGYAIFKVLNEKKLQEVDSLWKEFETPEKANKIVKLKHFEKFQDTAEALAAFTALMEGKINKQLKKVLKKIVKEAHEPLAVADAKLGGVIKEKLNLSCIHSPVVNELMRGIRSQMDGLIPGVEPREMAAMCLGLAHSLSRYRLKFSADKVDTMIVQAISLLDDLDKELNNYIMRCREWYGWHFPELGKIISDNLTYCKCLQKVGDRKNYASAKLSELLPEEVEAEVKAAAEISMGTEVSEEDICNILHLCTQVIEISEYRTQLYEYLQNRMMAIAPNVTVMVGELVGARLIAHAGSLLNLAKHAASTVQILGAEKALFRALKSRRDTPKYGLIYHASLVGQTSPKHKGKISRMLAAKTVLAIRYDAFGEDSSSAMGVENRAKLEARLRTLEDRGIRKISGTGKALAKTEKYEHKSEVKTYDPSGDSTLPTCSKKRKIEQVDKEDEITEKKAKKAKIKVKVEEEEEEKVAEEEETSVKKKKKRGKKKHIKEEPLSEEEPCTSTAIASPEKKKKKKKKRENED

B1: GFP-Nopp140 (phosphorylated) (natural protein)
chain: MADAGIRRVVPSDLYPLVLGFLRDNQLSEVANKFAKATGATQQDANASSLLDIYSFWLKSAKVPERKLQANGPVAKKAKKKASSSDSEDSSEEEEEVQGPPAKKAAVPAKRVGLPPGKAAAKASESSSSEESSDDDDEEDQKKQPVQKGVKPQAKAAKAPPKKAKSSDSDSDSSSEDEPPKNQKPKITPVTVKAQTKAPPKPARAAPKIANGKAASSSSSSSSSSSSDDSEEEKAAATPKKTVPKKQVVAKAPVKAATTPTRKSSSSEDSSSDEEEEQKKPMKNKPGPYSSVPPPSAPPPKKSLGTQPPKKAVEKQQPVESSEDSSDESDSSSEEEKKPPTKAVVSKATTKPPPAKKAAESSSDSSDSDSSEDDEAPSKPAGTTKNSSNKPAVTTKSPAVKPAAAPKQPVGGGQKLLTRKADSSSSEEESSSSEEEKTKKMVATTKPKATAKAALSLPAKQAPQGSRDSSSDSDSSSSEEEEEKTSKSAVKKKPQKVAGGAAPSKPASAKKGKAESSNSSSSDDSSEEEEEKLKGKGSPRPQAPKANGTSALTAQNGKAAKNSEEEEEEKKKAAVVVSKSGSLKKRKQNEAAKEAETPQAKKIKLQTPNTFPKRKKGEKRASSPFRRVREEEIEVDSRVADNSFDAKRGAAGDWGERANQVLKFTKGKSFRHEKTKKKRGSYRGGSISVQVNSIKFDSE
modifications: serines of the acidic serine repeats phosphorylated (expressed in insect cells to be fully phosphorylated)
For B1, the GFP-Nopp140 pulled down relative to WT MBP-NOP58 (MBP-NOP58 ΔNLS (human)) was 20%.

B2: Nopp140 (phosphorylated, hexa histidine tagged) (natural protein)
chain: B1 chain
modifications: serines of the acidic serine repeats phosphorylated (expressed in insect cells to be fully phosphorylated)
B2 showed a Nopp140 pulled down relative to full-length NAP57 [1] of 50%.

B3: GST-GAR1 (natural protein, human, UniProt Q9NY12 1-217, looked up)
chain: T2 sequence (looked up)
For B3, the reduction of binding relative to wild-type fibrillarin [2] was 40%, the reduction of binding relative to wild-type fibrillarin [3] was 35% and the binding result (MBP-GAR1 (full-length)) was “binds”. B3: binds [4].
